The values that follow come from article PMC2949612, “The effects of oligomerization on Saccharomyces cerevisiae Mcm4/6/7 function” (BMC Biochemistry, 2010).

The labels stand for the following.
B1: Mcm7 (natural protein, S. cerevisiae, UniProt P38132 1-845, looked up)
chain: MSAALPSIQLPVDYNNLFNEITDFLVTFKQDTLSSDATRNENEDENLDAENIEQHLLEKGPKYMAMLQKVANRELNSVIIDLDDILQYQNEKFLQGTQADDLVSAIQQNANHFTELFCRAIDNNMPLPTKEIDYKDDVLDVILNQRRLRNERMLSDRTNEIRSENLMDTTMDPPSSMNDALREVVEDETELFPPNLTRRYFLYFKPLSQNCARRYRKKAISSKPLSVRQIKGDFLGQLITVRGIITRVSDVKPAVEVIAYTCDQCGYEVFQEVNSRTFTPLSECTSEECSQNQTKGQLFMSTRASKFSAFQECKIQELSQQVPVGHIPRSLNIHVNGTLVRSLSPGDIVDVTGIFLPAPYTGFKALKAGLLTETYLEAQFVRQHKKKFASFSLTSDVEERVMELITSGDVYNRLAKSIAPEIYGNLDVKKALLLLLVGGVDKRVGDGMKIRGDINVCLMGDPGVAKSQLLKAICKISPRGVYTTGKGSSGVGLTAAVMKDPVTDEMILEGGALVLADNGICCIDEFDKMDESDRTAIHEVMEQQTISISKAGINTTLNARTSILAAANPLYGRYNPRLSPLDNINLPAALLSRFDILFLMLDIPSRDDDEKLAEHVTYVHMHNKQPDLDFTPVEPSKMREYIAYAKTKRPVMSEAVNDYVVQAYIRLRQDSKREMDSKFSFGQATPRTLLGIIRLSQALAKLRLADMVDIDDVEEALRLVRVSKESLYQETNKSKEDESPTTKIFTIIKKMLQETGKNTLSYENIVKTVRLRGFTMLQLSNCIQEYSYLNVWHLINEGNTLKFVDDGTMDTDQEDSLVSTPKLAPQTTASANVSAQDSDIDLQDA
notes: Mcm7, S. cerevisiae; also called minichromosome maintenance protein 7
B2: Mcm4^R701A (natural protein, S. cerevisiae, UniProt P30665 1-933, looked up)
chain: MSQQSSSPTKEDNNSSSPVVPNPDSVPPQLSSPALFYSSSSSQGDIYGRNNSQNLSQGEGNIRAAIGSSPLNFPSSSQRQNSDVFQSQGRQGRIRSSASASGRSRYHSDLRSDRALPTSSSSLGRNGQNRVHMRRNDIHTSDLSSPRRIVDFDTRSGVNTLDTSSSSAPPSEASEPLRIIWGTNVSIQECTTNFRNFLMSFKYKFRKILDEREEFINNTTDEELYYIKQLNEMRELGTSNLNLDARNLLAYKQTEDLYHQLLNYPQEVISIMDQTIKDCMVSLIVDNNLDYDLDEIETKFYKVRPYNVGSCKGMRELNPNDIDKLINLKGLVLRSTPVIPDMKVAFFKCNVCDHTMAVEIDRGVIQEPARCERIDCNEPNSMSLIHNRCSFADKQVIKLQETPDFVPDGQTPHSISLCVYDELVDSCRAGDRIEVTGTFRSIPIRANSRQRVLKSLYKTYVDVVHVKKVSDKRLDVDTSTIEQELMQNKVDHNEVEEVRQITDQDLAKIREVAAREDLYSLLARSIAPSIYELEDVKKGILLQLFGGTNKTFTKGGRYRGDINILLCGDPSTSKSQILQYVHKITPRGVYTSGKGSSAVGLTAYITRDVDTKQLVLESGALVLSDGGVCCIDEFDKMSDSTRSVLHEVMEQQTISIAKAGIITTLNARSSILASANPIGSRYNPNLPVTENIDLPPPLLSAFDLVYLVLDKVDEKNDRELAKHLTNLYLEDKPEHISQDDVLPVEFLTMYISYAKEHIHPIITEAAKTELVRAYVGMRKMGDDSRSDEKRITATTRQLESMIRLAEAHAKMKLKNVVELEDVQEAVRLIRSAIKDYATDPKTGKIDMNLVQTGKSVIQRKLQEDLSREIMNVLKDQASDSMSFNELIKQINEHSQDRVESSDIQEALSRLQQEDKVIVLGEGVRRSVRLNNRV
notes: Mcm4, S. cerevisiae; entire MCM4 ORF with the SRF arginine R701 changed to alanine; Purification of the mutant is not described separately; also called 4^RA; Mcm4^RA; source: purified

Substitutions are numbered along the chain they refer to.

Common to all, as to details: both partners purified
For the experiment “Mcm4^R701A”, the target named is B2. The experiment is described as follows: SEC; 5.2 nmol each subunit mixed, 5 mg/ml, 16°C 30 min; Superose 6 10/300 GL, 20 mM Tris-HCl pH 7.5, 0.1 mM EDTA, 2 mM DTT, 100 mM NaCl, 10% glycerol; no nucleotide. On the technique in general: In gel filtration, larger molecules generally elute earlier.
A further experiment deals with T1, Mcm4 (S. cerevisiae, UniProt P30665 1-933).
T1 construct: Mcm4, S. cerevisiae; the entire MCM4 ORF stands on pET11a-MCM4; also called minichromosome maintenance protein 4; source: purified (ammonium sulphate, SP Sepharose, heparin agarose, ssDNA Sepharose, Mono S)
T1 sequence (looked up): B2 chain with A701R
The experiment is described as follows: cross-linking; glutaraldehyde, 9 ug Mcm4/6/7 in 20 mM HEPES NaOH pH 8.4, 10 mM magnesium acetate, no nucleotide; 16°C 30 min then 2 min 37°C; 3.5% SDS-phosphate gel.

The next experiment deals with T2, Mcm6 (S. cerevisiae, UniProt P53091 1-1017).
T2 construct: Mcm6, S. cerevisiae; also called minichromosome maintenance protein 6
The experiment is described as follows: SEC; 5.2 nmol each subunit mixed, 5 mg/ml, 16°C 30 min; Superose 6 10/300 GL, 20 mM Tris-HCl pH 7.5, 0.1 mM EDTA, 2 mM DTT, 100 mM NaCl, 10% glycerol; no nucleotide.

T2 sequence (P53091 whole entry): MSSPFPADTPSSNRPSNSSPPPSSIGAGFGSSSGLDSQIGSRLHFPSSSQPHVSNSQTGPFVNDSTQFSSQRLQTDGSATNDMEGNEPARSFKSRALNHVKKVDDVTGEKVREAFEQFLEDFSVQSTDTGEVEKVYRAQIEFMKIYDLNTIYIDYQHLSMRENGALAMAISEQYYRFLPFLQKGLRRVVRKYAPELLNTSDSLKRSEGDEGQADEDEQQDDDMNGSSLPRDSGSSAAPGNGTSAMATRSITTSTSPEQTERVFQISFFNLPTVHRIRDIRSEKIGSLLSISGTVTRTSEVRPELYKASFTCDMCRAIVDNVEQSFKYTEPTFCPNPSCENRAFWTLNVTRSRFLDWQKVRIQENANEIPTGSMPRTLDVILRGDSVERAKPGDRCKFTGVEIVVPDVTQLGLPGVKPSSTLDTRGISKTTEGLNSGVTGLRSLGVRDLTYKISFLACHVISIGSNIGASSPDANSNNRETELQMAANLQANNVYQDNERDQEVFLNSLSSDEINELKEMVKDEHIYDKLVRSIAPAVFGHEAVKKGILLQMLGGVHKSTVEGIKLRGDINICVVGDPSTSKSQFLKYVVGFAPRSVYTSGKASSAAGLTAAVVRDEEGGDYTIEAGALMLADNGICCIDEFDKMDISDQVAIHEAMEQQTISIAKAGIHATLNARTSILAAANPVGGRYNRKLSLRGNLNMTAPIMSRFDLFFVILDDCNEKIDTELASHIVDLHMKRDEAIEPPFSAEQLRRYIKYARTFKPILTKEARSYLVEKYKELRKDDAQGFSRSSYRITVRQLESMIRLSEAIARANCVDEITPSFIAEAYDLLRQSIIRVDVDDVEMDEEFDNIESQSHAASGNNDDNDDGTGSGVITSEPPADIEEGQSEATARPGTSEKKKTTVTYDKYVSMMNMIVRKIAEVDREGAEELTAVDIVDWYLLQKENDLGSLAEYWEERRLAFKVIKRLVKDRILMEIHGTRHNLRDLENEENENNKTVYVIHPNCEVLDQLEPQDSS

Turning to B1, the binding result with Mcm4^R701A and with Mcm4 was “binds” throughout.

As for B2, in the experiment with Mcm6, the binding result was “binds”.
